# Results from patent US8029979B2, “Method for determining the substrate specificity of an enzyme” (JPT Peptide Technologies GmbH, priority 2001, dated 2011).
# BA1 = not defined here
# How the values were obtained:
# protein kinase A [1] = biological target: T1, protein kinase A (Bos taurus, UniProt P00517); assay: Time-dependent incubation of various modified surfaces with protein kinase A (FIG. 3, Example 31); type: biochemical; conditions: protein kinase A 2 U/mL, incubated for the given time at 25° C.
# T1 construct: purchased Sigma P26452 as printed
# Protocol: (§1) FIG. 3. The peptide Leu-Arg-Arg-Ala-Ser-Leu-Gly-NH2, modified at the N-terminus with the dipeptide cysteinyl-β-alanine, was coupled to maleinimido-functionalised surfaces by a Michael addition (maleinimido-functionalised glass surface, Sigma, Silane-Prep™, S4651; as well as maleinimidobutyryl-β-alanine-functionalised, modified polypropylene membranes). The modified glass surfaces were first pre-incubated for 10 minutes using 20 mL of 100 μM ATP solution in 50 mM of sodium phosphate buffer pH 7.5. […] (Example 31). The phosphorylation of the corresponding peptides was detected using a FUJIFILM PhosphorImager. The signal intensity of the respective spot is given below the figures. […] FIG. 4. […] After incubation for 30 min at 25° C. the phosphorylation of the corresponding peptides was detected using a FUJIFILM PhosphorImager. […] After incubation for 30 min at 25° C. the phosphorylation of the corresponding peptides was detected using a FUJIFILM PhosphorImager. […]
# After drying the glass surface the quantity of radioactive phosphate incorporated in the glass-surface-bound peptides was determined using a PhosphorImager system (FLA-3000, FUJIFILM) (see FIG. 3).
# protein kinase A [2] = biological target: T1, protein kinase A; assay: Incubation of modified glass surface with different concentrations of protein kinase A (FIG. 4, Example 25); type: biochemical; conditions: protein kinase A 1 U/mL or 10 U/mL, 30 min at 25° C.
# Protocol: as §1
# After drying the glass surface the quantity of radioactive phosphate incorporated in the glass-surface-bound peptides was determined using a PhosphorImager system (FLA-3000, FUJIFILM) (see FIG. 4).
substance,measurement,setting,value
Cys-BA1-Leu-Arg-Arg-Ala-Ser-Leu-Gly-NH2 ({Cys-BA1}-LRRASLG-NH2; reading uncertain; also: printed as Cys-BA1-Leu-Arg-Arg-Ala-Ser-Leu-Gly-NH2) [compound 85],kinase-mediated incorporation of radioactivity into the substrate amino acid sequence,protein kinase A [1]; modified glass surfaces,clear time dependence
same,kinase-mediated phosphorylation signal on polypropylene,protein kinase A [1]; modified polypropylene surfaces,only non-specific binding of ATP or kinase to the peptides is measured
same,signal intensity for the purified amino acid sequence higher than that for the corresponding control amino acid sequence,protein kinase A [2],approximately 300 times
same,signal intensity for the purified amino acid sequence higher than that for the synthesis product,protein kinase A [2],500%
